Measurements taken from PMC6902002, “Recognition and processing of branched DNA substrates by Slx1–Slx4 nuclease”.

Biological target: T1, Tt-Slx1 E79Q-Slx4CCD3 (Thielavia terrestris, UniProt G2QV68;G2RCY5 1-324;834-936, E79Q)
T1 sequence 1: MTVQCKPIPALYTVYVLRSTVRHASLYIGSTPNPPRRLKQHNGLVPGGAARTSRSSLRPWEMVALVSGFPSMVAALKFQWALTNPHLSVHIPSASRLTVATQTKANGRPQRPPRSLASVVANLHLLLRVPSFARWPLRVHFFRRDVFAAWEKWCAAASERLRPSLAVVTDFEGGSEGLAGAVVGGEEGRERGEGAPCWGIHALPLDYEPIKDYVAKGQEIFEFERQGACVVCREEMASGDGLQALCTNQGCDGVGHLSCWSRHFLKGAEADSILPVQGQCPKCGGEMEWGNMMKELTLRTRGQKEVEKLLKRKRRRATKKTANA
T1 sequence 2: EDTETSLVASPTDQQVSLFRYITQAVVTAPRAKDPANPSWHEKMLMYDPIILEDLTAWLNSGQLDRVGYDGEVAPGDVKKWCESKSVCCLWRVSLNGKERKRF
Assay: X-ray crystallography; Zn2+ in RING domain; 0.2 M CaCl2, 5 mM EDTA, pH 6.0; 2.7 A; Fluorescence anisotropy: 20 mM HEPES pH 7.5, 2.5 mM CaCl2, 100 mM NaCl, 0.1 mg/ml BSA, 25 C; 25 nM DNA, 0-500 nM protein
Details: protein: recombinant; tags: N-terminal 6xHis on Slx1; Slx4CCD3 untagged; chain copies: 2;2; self-annealed splayed arm; single G-A mismatch and unpaired bases in crystal

Question: Does CAATCGGCAATGACCTTTGGTCATTCGGCAGAT (structured_DNA) [self-annealing splayed-arm crystallization DNA] bind?
Answer: Result: binds
